In one assay the test system is CD133+ HT29-R cells. The assay can be described thus: Binding of CSANs to CD133+ HT29-R cells by flow cytometry. To be noted: fluorescein-labeled CSANs. The protocol:
The Bangs beads (Bangs Laboratories, Cat: 815A) were collected and resuspended in PBS, and then stained with the fluorescently labeled antibody that detects the corresponding cell surface receptor (anti-EGFR-BV421, Biolegend, Cat: 352911; anti-HER2-BV421, Biolegend, Cat: 324420; anti-EpCAM-AF647, Biolegend, Cat: 118211) at 4° C. for >30 min, followed by wash steps. 100,000 of the cancer cells were collected and stained with the corresponding antibody at 4° C. for >30 min, followed by wash steps. The cells and beads were analyzed by flow cytometry. The calibration curve was generated based on the MFI of the beads and the corresponding antibody binding capacity of the beads. The receptor number was calculated based on the MFI of the cells stained with the antibody and the previously generated calibration curve. […]
The binding specificity of the CSANs to the corresponding cellular receptors was studied by flow cytometry. […] The cells were then pelleted, washed, and resuspended in 0.5 mL of cold DPBS and analyzed using an LSR II flow cytometer (BD Biosciences) at the University Flow Cytometry Resource (UFCR). […] The modified cells were then resuspended in 0.5 mL of cold DPBS and analyzed using an LSR II flow cytometer (BD Biosciences) at the University Flow Cytometry Resource (UFCR).
In general terms: In flow cytometry, cells or beads pass a laser one at a time.

Assay [1] has as its target T1, epithelial cell adhesion molecule (EpCAM) on HT29-R cells (human, UniProt P16422 24-314).
T1 construct: whole, on cells
T1 sequence (looked up): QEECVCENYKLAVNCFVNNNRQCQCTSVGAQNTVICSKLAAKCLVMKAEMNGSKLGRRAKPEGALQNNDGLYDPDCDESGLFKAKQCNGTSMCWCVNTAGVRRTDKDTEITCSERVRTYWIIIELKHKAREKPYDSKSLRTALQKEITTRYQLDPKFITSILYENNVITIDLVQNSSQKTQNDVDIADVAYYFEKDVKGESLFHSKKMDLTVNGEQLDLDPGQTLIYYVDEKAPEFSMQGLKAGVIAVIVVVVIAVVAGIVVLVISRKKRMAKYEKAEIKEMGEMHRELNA
The assay can be described thus: flow cytometry, 0.5 µM fluorescein-labeled CSANs on HT29-R (EpCAM+) cells, 1 h at 4° C. The protocol:
(§1) The binding specificity of the CSANs to the corresponding cellular receptors was studied by flow cytometry. A431-R cells were chosen as the EGFR⁺ cell line; SK-BR-3-R cells were chosen as the HER2⁺ cell line; HT-29-R cells were chosen as the EpCAM⁺ cell line; HT29-R cells were chosen as the CD133⁺ cell line. The cells were harvested and washed with DPBS buffer (Gibco, Cat: 14190144), and aliquots of […] were then resuspended in 100 μL of DPBS solutions containing 0.5 μM of fluorescein-labeled CSANs and incubated for 1 h at 4° C. The cells were then pelleted, washed, and resuspended in 0.5 mL of cold DPBS and analyzed using an LSR II flow cytometer (BD Biosciences) at the University Flow Cytometry Resource (UFCR). For the cell surface modification with farnesylated CSANs, the sender cells were collected from cell culture, pelleted at 350 g for 5 min, and washed with 1 mL DPBS. Aliquots of 10⁵ cells were then incubated in 100 μL of DPBS solutions containing the desired concentrations of fluorescein-labeled farnesylated CSANs for at least 1 h at room temperature with rotation and washed twice with 1 mL cold DPBS to remove unbound CSANs. The modified cells were then resuspended in 0.5 mL of cold DPBS and analyzed using an LSR II flow cytometer (BD Biosciences) at the University Flow Cytometry Resource (UFCR).

Assay [2] concerns the target T2, epidermal growth factor receptor (EGFR) on A431-R / MDA-MB-231-R cells (human, UniProt P00533 25-1210).
T2 construct: whole, on cells
The assay can be described thus: flow cytometry, fluorescein-labeled CSANs on A431-R cells, 1 h at 4° C. The protocol:
as §1

In assay [3] the target is T1, epithelial cell adhesion molecule …. The assay can be described thus: flow cytometry, fluorescein-labeled CSANs on HT29-R cells, 1 h at 4° C. The protocol:
as §1

Assay [4] concerns the target T3, human epidermal growth factor receptor 2 (HER2) on SK-BR-3-R cells (human, UniProt P04626 23-1255).
T3 construct: whole, on cells
The assay can be described thus: flow cytometry, fluorescein-labeled CSANs on SK-BR-3-R cells, 1 h at 4° C. The protocol:
as §1

In assay [5] the test system is receptor expressing target cells (A431-R, SK-BR-3-R, HT29-R). The assay can be described thus: Binding specificity of CSANs to cellular receptors by flow cytometry. Conditions: unfarnesylated fluorescein-labeled CSANs, 0.5 μM, 1 h, 4° C. The protocol: as §1, with “EGFR^+” for “EGFR⁺”, “HER2^+” for “HER2⁺”, “EpCAM^+” for “EpCAM⁺”, “CD133^+” for “CD133⁺”, “10^5” for “10⁵”

Consider four molecules from patent US20240327804A1, “CONJUGATES AND METHODS OF USE THEREOF” (Regents of the University of Minnesota, priority 2023, published 2024).

B1: αCD133-scFv-DHFR^2 CSANs: fluorescein-labeled CSANs from αCD133-scFv-DHFR^2 protein (protein)
chain: MDIVLSQSPAIMSASPGEKVTISCSASSSVSYMYWYQQKPGSSPKPWIYRTSNLASGVPARFSGSGSGTSYSLTISSMEAEDAATYYCQQYHSYPPTFGAGTKLELKSSGGGGSGGGGGGSSRSSLEVKLVESGPELKKPGETVKISCKASGYTFTDYSMHWVNQAPGKGLKWMGWINTETGEPSYADDFKGRFAFSLETSASTAYLQINNLKNEDTATYFCATDYGDYFDYWGQGTTLTVSSELGGSGGGSGGGSGGMISLIAALAVDRVIGMENAMPWNLPADLAWFKRNTLNKPVIMGRHTWESIGRPLPGRKNIILSSQPGTDDRVTWVKSVDEAIAAAGDVPEIMVIGGGRVYEQFLPKAQKLYLTHIDAEVEGDTHFPDYEPDDWESVFSEFHDADAQNSHSYSFEILERRGMISLIAALAVDRVIGMENAMPWNLPADLAWFKRNTLNKPVIMGRHTWESIGRPLPGRKNIILSSQPGTDDRVTWVKSVDEAIAAAGDVPEIMVIGGGRVYEQFLPKAQKLYLTHIDAEVEGDTHFPDYEPDDWESVFSEFHDADAQNSHSYSFEILERRGGSGGGSGGGSGGDYKDDDDK
B1: in the assay on CD133+ HT29-R cells, the “binding to HT29-R cells” value was “specifically bind”.

B2: unfarnesylated αEpCAM-Fn3 CSANs (αEpCAM-Fn3-DHFR^2-CVIA oligomerized by bisMTX) (designed binder)
chain: MDYKDDDDKASSSDSPRNLEVTNATPNSLTISWDNSNYASYYRITYGETGGNSPSQELTVPGSTYNATISGLKPGQDYIITVYAVTYRDNYSYSNLISINYRSEIDKPSQGSGGSGGGGSGGGGSGGGGSGGGGSGGGGSGGGGSGGGGSGGGGSGGELGGISLIAALAVDRVIGMENAMPWNLPADLAWFKRNTLNKPVIMGRHTWESIGRPLPGRKNIILSSQPGTDDRVTWVKSVDEAIAAAGDVPEIMVIGGGRVYEQFLPKAQKLYLTHIDAEVEGDTHFPDYEPDDWESVFSEFHDADAQNSHSYSFEILERRGGISLIAALAVDRVIGMENAMPWNLPADLAWFKRNTLNKPVIMGRHTWESIGRPLPGRKNIILSSQPGTDDRVTWVKSVDEAIAAAGDVPEIMVIGGGRVYEQFLPKAQKLYLTHIDAEVEGDTHFPDYEPDDWESVFSEFHDADAQNSHSYSFEILERRGGSGGGSGGHHHHHHGGSGGSGGKKKKKKTCVIA
modifications: Non-specific NHS-fluorescein label on amines; monomers joined non-covalently into a predominantly octameric ring by bisMTX; the letters give one monomer.
notes: Fn3-DHFR^2 fusion nanoring formed with bisMTX; 'predominantly octameric'; also called anti-EpCAM-C5-Fn-1DD-CVIA
With B2, the binding result in assay [1] is “binds”.

B3: non-targeting DHFR^2-CVIA CSANs (other)
chain: GISLIAALAVDRVIGMENAMPWNLPADLAWFKRNTLNKPVIMGRHTWESIGRPLPGRKNIILSSQPGTDDRVTWVKSVDEAIAAAGDVPEIMVIGGGRVYEQFLPKAQKLYLTHIDAEVEGDTHFPDYEPDDWESVFSEFHDADAQNSHSYSFEILERRGGISLIAALAVDRVIGMENAMPWNLPADLAWFKRNTLNKPVIMGRHTWESIGRPLPGRKNIILSSQPGTDDRVTWVKSVDEAIAAAGDVPEIMVIGGGRVYEQFLPKAQKLYLTHIDAEVEGDTHFPDYEPDDWESVFSEFHDADAQNSHSYSFEILERRGGSGGSGGDYKDDDDKGGSGGSGGKKKKKKTCVIA
modifications: Non-specific NHS-fluorescein label on amines; monomers joined non-covalently into a predominantly octameric ring by bisMTX; the letters give one monomer.
notes: Control nanoring without targeting domain, unfarnesylated; 'predominantly octameric'
Turning to B3, the binding result in assay [2], in assay [3] and in assay [4] was “no binding (tested: 0.5 µM)” in each case.

B4: DHFR^2-CVIA CSANs: non-targeting unfarnesylated control CSANs from DHFR^2-CVIA protein (protein)
chain: B3 chain
For the molecule B4, the “binding to receptor expressing target cells” value in assay [5] is listed as “no observable binding”.
